Assay results published in the supplement of paper PMC10201428.
± gives the standard deviation of the averaged measurements.

B1: library; a variant is named by its letters at N, in order (parent)
chain: AATGTTGTTGATGCAACCATAAAGTGATATTTAATAATTATTTATAATCAGCAACTTAACCACAAAACAACCATATATTGATATNTCACAAAACAACCATAANTTGATATTTTTGTGAATCGAGTATTTCAGCAAAACTACTGCAGTAAGAA

Assays:
[1] = variants of: B1; assay: relative integration efficiency (T-LR orientation) vs wild-type transposon end (log2 (normalized fold change)); transposon end mutated: left end; higher = more efficient transposition; conditions: with VchCAST RNA-guided transposition machinery (E. coli BL21(DE3) host, lacZ target)
In short: (§1)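 Barcode abundances in input plasmids and in genomic integration junctions were obtained by PCR amplification and Illumina sequencing. These came from E. coli BL21(DE3) co-transformed with a T7-driven effector plasmid and a pUC57 donor carrying 1549 left-end or 1849 right-end transposon variants, then plated with 0.1 mM IPTG at 37°C for 18 h. Relative integration efficiency is the output/input fold change, normalised to reference barcodes and log-transformed.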

[2] = variants of: B1; assay: relative integration efficiency (T-RL orientation) vs wild-type transposon end (log2 (normalized fold change)); transposon end mutated: left end; higher = more efficient transposition; conditions: with VchCAST RNA-guided transposition machinery (E. coli BL21(DE3) host, lacZ target)
In short: as §1

Variant | relative integration efficiency (log2) [1] | relative integration efficiency (log2) [2]
CG T32A A33T T86A C87G T112A T113A | -0.463 ± 0.11 | -0.48 ± 0.21
CG T39A A40T T41A T42A | 0.453 ± 0.17 | 0.475 ± 0.019
AG A83C T84G T86G | -1.31 ± 0.49 | -0.668 ± 0.067
CG T111G | 0.0369 ± 0.43 | -0.195 ± 0.25
TA A16C G24T T32G A33C A70C T76A T86G T104A T110A T113A | -0.474 ± 0.24 | -0.791 ± 0.56
CG G7T T8G | < -10 | -7.23 ± 1.1
CA A23G G24T A33T A96C T110A T113A | -0.448 ± 0.74 | -0.516 ± 0.28
CG A22C A23C G24T T25G | -2.32 ± 0.92 | -2.89 ± 0.82
CG A118G | -0.0561 ± 0.73 | -0.144 ± 0.097
CG T43G A44C T45G A46C | 0.536 ± 0.48 | -0.504 ± 0.27
CG A64C A65C | -0.354 ± 0.13 | -0.201 ± 0.15
CG A44C T45G | 0.0152 ± 0.65 | -0.0735 ± 0.14
CG T86G C87A | -0.424 ± 0.33 | -0.246 ± 0.1
CG A107T T108A A109T T110A | -0.765 ± 0.3 | -0.783 ± 0.46
CG C63G A64T A65T A66T | 0.34 ± 0.24 | 0.217 ± 0.0048
CG A75T T76A A77T T78A | -0.0527 ± 0.32 | -0.453 ± 0.37
CC A22T A23T G24C T76A A77T T78A A102T T104A | -0.143 ± 0.92 | -0.196 ± 0.36
CG A21C A75C A101C | -3.75 ± 1.3 | -3.08 ± 0.72
CG C98G | -0.135 ± 0.48 | -0.464 ± 0.23
CG T116C | 0.235 ± 0.36 | -0.0857 ± 0.085
TA A23G G24T A33T T76A T78A T84A C87A T104G T113A | 0.315 ± 0.39 | -0.265 ± 0.4
CG T104G T105G | -1.76 ± 0.75 | -1.3 ± 0.71
CG A44G | 0.0745 ± 0.29 | 0.155 ± 0.065
CG A44T | 0.138 ± 0.09 | 0.0943 ± 0.032

Variant | relative integration efficiency (log2) [1] | relative integration efficiency (log2) [2]
CG T116G G117T | -0.146 ± 0.0071 | -0.273 ± 0.045
CG A118T A119T | 0.266 ± 0.26 | -0.158 ± 0.014
CG C49G A50T | -0.94 ± 0.92 | -0.509 ± 0.62
CG T112A T113A | -0.503 ± 0.53 | -0.318 ± 0.2
CG C14A A15C A16C C17A | -1.81 ± 1 | -1.38 ± 0.6
CG C18G C72G C98G | -0.915 ± 0.23 | -0.987 ± 0.56
CG A46C A47C T48G C49A | -2.09 ± 0.25 | -1.44 ± 0.53
CG C18T | 0.181 ± 0.51 | 0.16 ± 0.08
CG T28A A29T | -0.0554 ± 0.23 | -0.309 ± 0.44
CG T74A A75T T76A A77T | -0.829 ± 0.96 | -0.759 ± 0.32
CG G7T | -4.09 ± 0.17 | -2.59 ± 0.72
CG G4T | 0.222 ± 0.16 | -0.172 ± 0.075
CG T32G A33C T86G C87A T112G T113G | -0.849 ± 0.54 | -0.843 ± 0.24
CG A15C A69C A95C | -0.511 ± 0.34 | -0.731 ± 0.34
TA G24A T30A A70C T76A T84A C87A T104A T110A T113A | -0.0484 ± 0.45 | -0.389 ± 0.28
CG A77T T78A T79A G80C | -3.86 ± 2.7 | -2.18 ± 0.89
TA A22T G24T T31C A33C T76A A77G C87T A102T T111C T113C | -0.361 ± 0.78 | -0.688 ± 0.55
CT A23C G24T A77C T78G T104G | -0.239 ± 0.088 | -0.527 ± 0.28
CG A118C A119C T120G C121A G122T A123C G124T T125G | -0.0272 ± 0.24 | 0.0769 ± 0.16
TA A22T G24T T31C A33C T76A T78G C87A A96C T112G T113C | -0.491 ± 0.49 | -0.16 ± 0.22
CG T74G A75C T76G A77C | -2.54 ± 1.3 | -1.95 ± 0.99
CG C49A A50C G51T C52A | -1.02 ± 1.1 | -0.71 ± 0.6
CT A101C A102C T104G | -2.08 ± 1.2 | -1.96 ± 0.64
CG T35G A36C A37C T38G | 0.209 ± 0.74 | 0.203 ± 0.092

Variant | relative integration efficiency (log2) [1] | relative integration efficiency (log2) [2]
CA A23G G24T A33T T104G T113A | 0.0933 ± 0.62 | -0.0946 ± 0.2
CG C49A | -0.195 ± 0.69 | 0.178 ± 0.24
GG T82A A83T T84A | -0.904 ± 0.77 | -0.974 ± 0.49
CG T120C | -0.00648 ± 0.1 | -0.131 ± 0.053
CG C94G | -1.16 ± 0.81 | -0.958 ± 0.57
CG C94T | -0.715 ± 0.59 | -0.669 ± 0.41
TA A23G G24T A33T T76A A77G C87T T104G T113A | 0.309 ± 0.37 | -0.339 ± 0.36
CG A77T | -0.192 ± 0.066 | -0.217 ± 0.059
CG T112A | -0.239 ± 0.61 | -0.304 ± 0.19
CG A47C T48G C49A A50C | -1.93 ± 0.6 | -1.5 ± 0.48
CG A44T T45A A46T A47T | 0.462 ± 0.079 | -0.0681 ± 0.078
CG C97A C98A | -1.76 ± 0.82 | -1.7 ± 0.77
CC | 0.321 ± 0.75 | -0.0693 ± 0.024
CG T86A C87G A88T C89G | 0.1 ± 0.54 | -0.174 ± 0.12
CG T12A G13A T30A A77C T86G | -0.394 ± 0.45 | -0.113 ± 0.12
CG C97A | -0.467 ± 1.2 | -0.235 ± 0.37
TA G24A T30A A70C T76A T86G T104G T113A | -0.0684 ± 0.51 | -0.533 ± 0.11
TA T76A A77G C87T T104A T110A T113A | 0.28 ± 0.36 | -0.703 ± 0.35
CG T28G | -0.845 ± 0.19 | -0.536 ± 0.28
CG T28C | -0.0735 ± 0.44 | -0.273 ± 0.15
CC A23T A77T | 0.131 ± 0.37 | -0.225 ± 0.1
AG T86G C87A A88C | 0.0813 ± 0.34 | -0.158 ± 0.041
TA A23G G24T A33T T76A A77G C87T T104A T110A T113A | 0.0613 ± 0.2 | -0.917 ± 0.47
CG T56C | -0.129 ± 0.16 | -0.2 ± 0.061

Variant | relative integration efficiency (log2) [1] | relative integration efficiency (log2) [2]
CG A15G | -0.118 ± 0.26 | -0.121 ± 0.26
CG A15T | 0.37 ± 0.27 | -0.148 ± 0.14
CT A22C A23C G24T T25G T76G A77C T78G T79G A102C T104G T105G | < -10 | -8.29 ± 1.2
CG C55A | -0.0412 ± 0.7 | 0.0708 ± 0.088
CG C55G | 0.245 ± 0.15 | 0.177 ± 0.069
CG T25G T79G T105G | -3.03 ± 1.7 | -2.73 ± 1.2
TG G24A T30A T76A A77G C87T | 0.724 ± 0.54 | 0.0845 ± 0.24
CG G117C A118T | 0.236 ± 0.11 | 0.235 ± 0.026
CG T108A | -1.1 ± 0.37 | -0.257 ± 0.48
CG C61A A62C | 0.514 ± 0.034 | 0.443 ± 0.054
TA A23G G24T A33T T76A A77G C87T A96C T110A T113A | -0.603 ± 0.67 | -0.516 ± 0.48
CG A50T | -0.977 ± 0.48 | -0.161 ± 0.19
CG A102G | -1.58 ± 1.1 | -0.825 ± 0.55
CG A102C | -1.3 ± 0.53 | -1.12 ± 0.46
CG T112G T113G | -0.314 ± 0.34 | -0.443 ± 0.12
CG A96T C97G | -0.64 ± 0.43 | -0.723 ± 0.29
CG A33C A34C | -0.259 ± 0.42 | 0.167 ± 0.0038
TA A16C G24T T32G A33C A70C T76A T84A C87A T104G T113A | -1.55 ± 1.7 | -0.951 ± 0.57
CG A16C | -0.374 ± 0.29 | -0.26 ± 0.13
TA T76A T78A T84A C87A A102T T111C T113C | -0.0132 ± 0.72 | 0.244 ± 0.16
TG G24A T30A T76A T78A T84A C87A | 0.236 ± 0.09 | 0.0157 ± 0.17
CG C61G | -0.0835 ± 0.46 | -0.191 ± 0.019
CG C49G A50T G51C C52G | -1.24 ± 0.76 | -1.58 ± 0.9
CG T78C | 0.27 ± 0.3 | -0.0794 ± 0.1

Variant | relative integration efficiency (log2) [1] | relative integration efficiency (log2) [2]
TA A22T G24T T31C A33C T76A T78A T84A C87A A102T T111C T113C | -0.838 ± 1.2 | -0.485 ± 0.43
TA A23G G24T A33T A70C T76A T86G T104G T113A | 0.529 ± 0.03 | -0.0666 ± 0.38
CG T76G A77C T78G T79G | -3.06 ± 1.4 | -2.26 ± 0.77
CG T20G A21C | -2.47 ± 0.87 | -2.18 ± 0.77
CG A99G | -0.0966 ± 0.58 | -0.278 ± 0.18
CG C97G C98G | -1.23 ± 0.91 | -1.07 ± 0.5
CG A93C C94A A95C A96C | -0.979 ± 1.9 | -1.09 ± 0.56
CG A109T | 0.223 ± 0.47 | 0.209 ± 0.39
CG A1T A2T G4T T5G | -0.165 ± 0.16 | -0.0703 ± 0.2
TA A16C G24T T30A A70C T76A T84A C87A A96C T110A T113A | -0.489 ± 0.47 | -0.00649 ± 0.34
CG T110A T111A T112A T113A | -0.328 ± 0.56 | -0.587 ± 0.42
CG A29G | -0.232 ± 0.74 | -0.238 ± 0.44
CG A34C T35C A36G T38C A40G T42C A44G T45C A46C A53C A62G A65G A66C | -1.83 ± 0.73 | -1.68 ± 0.71
CG T105A G106C | -2.53 ± 0.084 | -2.19 ± 0.71
CG A77C T86G | 0.141 ± 0.0087 | -0.217 ± 0.029
CG A96C C97A C98A A99C | -1.79 ± 0.72 | -2.25 ± 0.85
CG G51C C52G | -0.162 ± 0.74 | -0.107 ± 0.11
CG C52G | 0.484 ± 0.31 | -0.00219 ± 0.15
CG C52A | 0.484 ± 0.55 | 0.279 ± 0.017
CG A75T | -0.0748 ± 0.42 | -0.289 ± 0.15
